Data from US20120219551A1.
Several values for one entry are separate records, joined by “and”; a condition that tells them apart may be missing. Equal entries are not always repeated. One block for each substance: values may come before it.

Tests used:
[1] = molecular target: FcγRIIB, soluble dimeric protein (extracellular domain fused to the hinge-CH2-CH3 domain of human IgG2) (human) (UniProt P31994); test: ELISA
[2] = molecular target: FcγRIIIA (CD16A), V158 allotype (human) (UniProt P08637)
FcγRIIIA (CD16A), V158 allotype (human), sequence (P08637 17-208 F176V limits assumed): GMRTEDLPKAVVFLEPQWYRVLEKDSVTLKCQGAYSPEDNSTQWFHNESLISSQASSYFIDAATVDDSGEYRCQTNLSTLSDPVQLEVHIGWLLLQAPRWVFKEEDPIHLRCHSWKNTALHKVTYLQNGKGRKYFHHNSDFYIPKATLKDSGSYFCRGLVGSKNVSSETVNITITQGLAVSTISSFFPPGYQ

[3] = molecular target: 2aRFcagl (FcγRIIA 131R-Fc fusion) (human) (UniProt P12318)
2aRFcagl (FcγRIIA 131R-Fc fusion) (human), sequence (P12318 34-217 H167R): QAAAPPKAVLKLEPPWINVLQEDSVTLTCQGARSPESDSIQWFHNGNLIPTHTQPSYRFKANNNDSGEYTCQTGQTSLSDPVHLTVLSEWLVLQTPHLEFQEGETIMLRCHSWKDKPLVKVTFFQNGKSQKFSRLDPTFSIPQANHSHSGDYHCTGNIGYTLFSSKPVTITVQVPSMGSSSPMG

[4] = molecular target: 2aHFcagl (FcγRIIA 131H-Fc fusion) (human) (UniProt P12318)
2aHFcagl (FcγRIIA 131H-Fc fusion) (human), sequence (P12318 34-217): as the sequence (P12318 34-217 H167R) above, with R134H counted along it

[5] = molecular target: FcγRIIIA (CD16A), F158 allotype (human) (UniProt P08637)
FcγRIIIA (CD16A), F158 allotype (human), sequence (P08637 17-208 limits assumed): as the sequence (P08637 17-208 F176V limits assumed) above, with V160F counted along it

[6] = molecular target: 2bFcagl (FcγRIIB-Fc fusion) (human) (UniProt P31994)
2bFcagl (FcγRIIB-Fc fusion) (human), sequence (P31994 43-217): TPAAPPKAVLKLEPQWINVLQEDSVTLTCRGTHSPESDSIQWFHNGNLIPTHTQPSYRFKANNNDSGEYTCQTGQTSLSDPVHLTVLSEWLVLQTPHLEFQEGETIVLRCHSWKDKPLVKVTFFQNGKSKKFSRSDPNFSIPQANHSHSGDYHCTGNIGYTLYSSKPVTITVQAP

CD32B-G2Ag (human) = CD32B-G2Ag (human) (UniProt P31994); test: relative off-rate wt/variant; method not given (BIAcore elsewhere)
CD32B-G2Ag (human), sequence (P31994 43-217): as above

CD16A(F158) (human) = CD16A(F158) (human) (UniProt P08637); test: as above
CD16A(F158) (human), sequence (P08637 17-208): as the sequence (P08637 17-208 F176V limits assumed) above, with V160F counted along it

CD32A-G2Ag (human) = CD32A-G2Ag (human) (UniProt P12318); test: as above
CD32A-G2Ag (human), sequence (P12318 34-217): as the sequence (P12318 34-217 H167R) above, with R134H counted along it

CD16A(V158) (human) = CD16A(V158) (human) (UniProt P08637); test: as above
CD16A(V158) (human), sequence (P08637 17-208 F176V): as the sequence (P08637 17-208 F176V limits assumed) above

[7] = molecular target: FcγRIIIA, soluble monomeric protein (extracellular region joined to the linker-AVITAG sequence) (human) (UniProt P08637); test: yeast display FACS, biotinylated receptor chased with unlabeled receptor
Target sequence in this assay (P08637 17-208 F176V limits assumed, form in doubt): as the sequence (P08637 17-208 F176V limits assumed) above

[8] = molecular target: soluble monomeric FcγRIIIA (extracellular region of FcγRIIIA joined to the linker-AVITAG sequence) (human) (UniProt P08637); test: BIAcore: FcγRIIIA at 200 nM and 800 nM over ch4-4-20 captured on BSA-FITC; separate fit, average of the two concentrations (Table 14 prints 90)
soluble monomeric FcγRIIIA (extracellular region of FcγRIIIA joined to the linker-AVITAG sequence) (human), sequence (P08637 17-208): as the sequence (P08637 17-208 F176V limits assumed) above, with V160F counted along it

[9] = molecular target: soluble monomeric FcγRIIIA (extracellular region of FcγRIIIA joined to the linker-AVITAG sequence) (human) (UniProt P08637); test: ELISA
[10] = molecular target: soluble dimeric FcγRIIB-Fc fusion protein (extracellular domain of FcγRIIB fused to hinge-CH2-CH3 of human IgG2) (human) (UniProt P31994); test: ELISA
soluble dimeric FcγRIIB-Fc fusion protein (extracellular domain of FcγRIIB fused to hinge-CH2-CH3 of human IgG2) (human), sequence (P31994 43-217): as the sequence (P31994 43-217) above

[11] = molecular target: soluble monomeric FcγRIIIA (extracellular region of FcγRIIIA joined to the linker-AVITAG sequence) (human) (UniProt P08637); test: BIAcore: FcγRIIIA at 200 nM and 800 nM over ch4-4-20 captured on BSA-FITC; separate fit, average of the two concentrations (Table 14 prints 0.075)
[12] = molecular target: soluble monomeric FcγRIIIA (extracellular region of FcγRIIIA joined to the linker-AVITAG sequence) (human) (UniProt P08637); test: SPR (BIAcore), Ab captured on BSA-FITC, separate fit 200/800 nM
[13] = molecular target: soluble dimeric FcγRIIB-Fc fusion protein (extracellular domain of FcγRIIB fused to hinge-CH2-CH3 of human IgG2) (human) (UniProt P31994); test: as above
[14] = molecular target: soluble dimeric FcγRIIB-Fc fusion protein (extracellular domain of FcγRIIB fused to hinge-CH2-CH3 of human IgG2) (human) (UniProt P31994); test: ELISA of FcγRIIB binding, OD printed beside the sensorgram (Table 15 prints 0.08)
[15] = molecular target: FcγRIIIA on natural killer cells of human donor PBMC (human) (UniProt P08637); test: cell-based or functional assay
FcγRIIIA on natural killer cells of human donor PBMC (human), sequence (P08637 17-254): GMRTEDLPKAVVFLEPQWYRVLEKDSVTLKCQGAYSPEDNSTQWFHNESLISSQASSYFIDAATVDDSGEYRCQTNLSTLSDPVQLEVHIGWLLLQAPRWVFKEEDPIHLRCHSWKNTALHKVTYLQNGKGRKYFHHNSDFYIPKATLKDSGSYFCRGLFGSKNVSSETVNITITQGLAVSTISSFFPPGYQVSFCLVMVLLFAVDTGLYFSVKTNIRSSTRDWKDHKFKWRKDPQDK

FcγRIIB (CD32B) (human) [16] = molecular target: FcγRIIB (CD32B) (human) (UniProt P31994); test: BIAcore (as Table 27); cells shifted one column to the left
FcγRIIB (CD32B) (human), sequence (P31994 43-217 limits assumed): as the sequence (P31994 43-217) above

FcγRIIB (CD32B) (human) [17] = molecular target: FcγRIIB (CD32B) (human) (UniProt P31994); test: BIAcore (as Table 27)
[18] = molecular target: FcγRIIIA (CD16A), V158 allotype (human) (UniProt P08637); test: BIAcore (as Table 27)
FcγRIIB (CD32B) (human) [19] = molecular target: FcγRIIB (CD32B) (human) (UniProt P31994); test: BIAcore
[20] = molecular target: FcγRIIA (CD32A), H131 allotype (human) (UniProt P12318); test: BIAcore
FcγRIIA (CD32A), H131 allotype (human), sequence (P12318 34-217 limits assumed): as the sequence (P12318 34-217 H167R) above, with R134H counted along it

[21] = molecular target: FcγRIIIA (CD16A), V158 allotype (human) (UniProt P08637); test: BIAcore
[22] = molecular target: FcγRIIIA (CD16A), F158 allotype (human) (UniProt P08637); test: BIAcore
[23] = molecular target: FcγRIIIA, soluble monomeric protein (extracellular region joined to the linker-AVITAG sequence) (human) (UniProt P08637); test: ELISA
Target sequence in this assay (P08637 17-208 F176V limits assumed): as the sequence (P08637 17-208 F176V limits assumed) above

[24] = molecular target: soluble monomeric FcγRIIIA 158V (extracellular region joined to linker-AVITAG) (human) (UniProt P08637); test: SPR (BIAcore), Fc mutant in ch4-4-20, off rate relative to wild type
soluble monomeric FcγRIIIA 158V (extracellular region joined to linker-AVITAG) (human), sequence (P08637 17-208 F176V): as the sequence (P08637 17-208 F176V limits assumed) above

[25] = molecular target: soluble dimeric FcγRIIB-Fc fusion protein (extracellular domain of FcγRIIB fused to hinge-CH2-CH3 of human IgG2) (human) (UniProt P31994); test: as above
FcγRIIB (CD32B) (human) [26] = molecular target: FcγRIIB (CD32B) (human) (UniProt P31994); test: not stated; human FcRs
[27] = molecular target: FcγRIIA (CD32A), H131 allotype (human) (UniProt P12318); test: not stated; human FcRs
[28] = molecular target: FcγRIIIA (CD16A), V158 allotype (human) (UniProt P08637); test: not stated; human FcRs
[29] = molecular target: FcγRIIIA (CD16A), F158 allotype (human) (UniProt P08637); test: not stated; human FcRs
[30] = molecular target: FcγRIIIA (CD16A), F158 allotype (human) (UniProt P08637); test: BIAcore (as Table 27)
[31] = molecular target: soluble dimeric FcγRIIB-Fc fusion protein (extracellular domain of FcγRIIB fused to hinge-CH2-CH3 of human IgG2) (human) (UniProt P31994); test: BIAcore: FcγRIIB-Fc fusion at two concentrations over ch4-4-20 captured on BSA-FITC; separate fit, average of the two concentrations (Table 15 prints 0.085)

FcγRIIB, soluble dimeric protein (extracellular domain fused to the hinge-CH2-CH3 domain of human IgG2) (human), sequence (P31994 43-217): as the sequence (P31994 43-217) above

Kd [8]: 91.8 nM
ELISA, OD [9]: 0.37 OD
ELISA, OD [10]: 0.08 OD
koff [11]: 0.073 s⁻¹
Kd [12]: 90 nM
koff [12]: 0.075 s⁻¹
kon [12]: 822000 M⁻¹ s⁻¹
Kd [13]: 82.3 nM
koff [13]: 0.1 s⁻¹
ELISA, OD [14]: 0.1 OD
Substance: ch4-4-20 Mut11 (R255L, F243L) (antibody)
ADCC, % [15]: 32%

fold change vs WT [1]: 0.5 fold
Substance: Fc variant D399E, R292L, V185M (antibody)

fold change vs WT [1]: 4 fold
fold change vs WT [23]: 1.25 fold
Substance: Fc variant E258D, N384K (antibody)

Koff WT/Mut [24]: 0.92
Koff WT/Mut [25]: 1.04
Substance: ch4-4-20 MgFc41 (H268N, P396L) (antibody)
Relative rate of lysis (ADCC, vs wild type ch4-4-20) [15]: 2.24

ELISA, OD [9]: 0.5 OD
ELISA, OD [10]: 0.4 OD
Kd [12]: 319 nM
Kd [13]: 61.4 nM
koff [13]: 0.085 s⁻¹
koff [31]: 0.0847 s⁻¹
Substance: ch4-4-20 wild type (chimeric anti-fluorescein antibody, IgG1)
ADCC, % [15]: 17.5%

Koff WT/Mut [24]: 1.64
Koff WT/Mut [25]: 2.3
Substance: ch4-4-20 MgFc38 (K392T, P396L) (antibody)
Relative rate of lysis (ADCC, vs wild type ch4-4-20) [15]: 3.07

Second part, the substance before the results:

Substance: Fc variant K317N, F423-deleted (antibody)
fold change vs WT [1]: 7 fold

Substance: immunoglobulin with Fc variant L235I, F243L, R292P, Y300L (antibody)
binding relative to wt (wt = 1) [2]: 2.6
binding relative to wt (wt = 1) [3]: 0.1
binding relative to wt (wt = 1) [4]: 0.5
binding relative to wt (wt = 1) [5]: 3.3
binding relative to wt (wt = 1) [6]: 0.2

Substance: Antibody ch2.4G2 Fc Variant 51 (F243L, R292P, Y300L, V305I, P396L)
Koff ratio (wt/mut) (CD32B-G2Ag (human)): 3.2 wt/mut
Koff ratio (wt/mut) (CD16A(F158) (human)): 8.3 wt/mut
Koff ratio (wt/mut) (CD32A-G2Ag (human)): 1.4 wt/mut
Koff ratio (wt/mut) (CD16A(V158) (human)): 10.1 wt/mut

Substance: Fc variant P396L (from UniProt P01857 1-330) (antibody)
loss of cell staining after 1 minute with unlabeled FcγRIIIA [7]: 50%

Substance: immunoglobulin with Fc variant L234F, F243L, R292P, Y300L (antibody)
binding relative to wt (wt = 1) [2]: 1.7
binding relative to wt (wt = 1) [3]: 0.2
binding relative to wt (wt = 1) [4]: 0.3
binding relative to wt (wt = 1) [5]: 1.6
binding relative to wt (wt = 1) [6]: 0.2

Substance: Fc variant D221Y, M252I, A330G, A339T, T359N, V422I, H433L (antibody)
fold change vs WT [1]: 6 fold

Substance: immunoglobulin with Fc variant D270E, G316D, P396L, R416G (antibody)
Koff WT/Koff mutant (FcγRIIB (CD32B) (human) [16]): 1.07
Koff WT/Koff mutant (FcγRIIB (CD32B) (human) [17]): 1.07
Koff WT/Koff mutant [18]: 1.22
Koff WT/Koff mutant (FcγRIIB (CD32B) (human) [19]): 1.07
Koff WT/Koff mutant [20]: 0.95
Koff WT/Koff mutant [21]: 1.22
Koff WT/Koff mutant [22]: 0.94

Substance: Antibody 2B6 3.5 Fc Variant 48 (F243L, R292P, V305I)
Koff ratio (wt/mut) (CD32B-G2Ag (human)): 0.2 wt/mut
Koff ratio (wt/mut) (CD16A(F158) (human)): 1.4 wt/mut
Koff ratio (wt/mut) (CD32A-G2Ag (human)): 0.1 wt/mut
Koff ratio (wt/mut) (CD16A(V158) (human)): 2.6 wt/mut

Substance: Fc variant S415I, L251F (antibody)
fold change vs WT [1]: 0.75 fold
fold change vs WT [23]: 0.5 fold

Substance: immunoglobulin with Fc variant L235Q, F243L, R292P, Y300L (antibody)
binding relative to wt (wt = 1) [2]: 1.8
binding relative to wt (wt = 1) [4]: 0.2

Substance: ch4-4-20 MgFc49 (K261N, K210M, P396L) (antibody)
Koff WT/Mut [24]: 1.29
Koff WT/Mut [25]: 0.85
Relative rate of lysis (ADCC, vs wild type ch4-4-20) [15]: 2.06

Substance: immunoglobulin with Fc variant F243L, R292P (antibody)
Koff WT/Koff mutant (FcγRIIB (CD32B) (human) [16]): 0.12
fold change vs wild-type affinity (FcγRIIB (CD32B) (human) [26]): -5.3 fold
fold change vs wild-type affinity [27]: -0.9 fold
fold change vs wild-type affinity [28]: 3 fold
fold change vs wild-type affinity [29]: 0.7 fold
Koff WT/Koff mutant (FcγRIIB (CD32B) (human) [17]): 0.12 and 0.16
Koff WT/Koff mutant [18]: 4.73 and 4
Koff WT/Koff mutant [30]: 1.67
Koff WT/Koff mutant (FcγRIIB (CD32B) (human) [19]): 0.12 and 0.16
Koff WT/Koff mutant [20]: 0.34 and 0.52
Koff WT/Koff mutant [21]: 4.73 and 4
Koff WT/Koff mutant [22]: 0.6 and 1.67

Substance: Fc variant K370N, S440N (antibody)
fold change vs WT [1]: 3.5 fold
